In publication PMC6554949, “Arabidopsis thaliana organelles mimic the T7 phage DNA replisome with specific interactions between Twinkle protein and DNA polymerases Pol1A and Pol1B” (BMC Plant Biology, 2019):
Each block holds one molecule with its values, some of them ahead of it.

How the values were obtained:
DnaE (Bacillus subtilis) = DnaE (Bacillus subtilis) (UniProt O34623); conditions: cited from earlier work
[1] = biological target: T7 primase-helicase (Escherichia phage T7) (UniProt P03692); conditions: cited from earlier work
[2] = biological target: T1, polyhistidine-tagged Pol1B (recombinant, fluorescently labelled) (Arabidopsis thaliana, UniProt Q84ND9 56-1034, fluorescent dye RED-tris-NTA (Monolith His-Tag Labeling Kit) on the His tag); assay: MST; His-tagged Pol1B labelled with RED-tris-NTA, constant 20 nM (10 nM in the results text); ligands in 16 serial dilutions; PBS + 0.05% Tween; Monolith NT.115p, 10% LED power, 50% MST power, standard capillaries; conditions: both partners purified
T1 construct: DNA polymerase 1B, Arabidopsis thaliana, At3g20540; also called his-tagged Pol1B; DNA polymerase 1B; source: recombinant, purified
T1 sequence (looked up): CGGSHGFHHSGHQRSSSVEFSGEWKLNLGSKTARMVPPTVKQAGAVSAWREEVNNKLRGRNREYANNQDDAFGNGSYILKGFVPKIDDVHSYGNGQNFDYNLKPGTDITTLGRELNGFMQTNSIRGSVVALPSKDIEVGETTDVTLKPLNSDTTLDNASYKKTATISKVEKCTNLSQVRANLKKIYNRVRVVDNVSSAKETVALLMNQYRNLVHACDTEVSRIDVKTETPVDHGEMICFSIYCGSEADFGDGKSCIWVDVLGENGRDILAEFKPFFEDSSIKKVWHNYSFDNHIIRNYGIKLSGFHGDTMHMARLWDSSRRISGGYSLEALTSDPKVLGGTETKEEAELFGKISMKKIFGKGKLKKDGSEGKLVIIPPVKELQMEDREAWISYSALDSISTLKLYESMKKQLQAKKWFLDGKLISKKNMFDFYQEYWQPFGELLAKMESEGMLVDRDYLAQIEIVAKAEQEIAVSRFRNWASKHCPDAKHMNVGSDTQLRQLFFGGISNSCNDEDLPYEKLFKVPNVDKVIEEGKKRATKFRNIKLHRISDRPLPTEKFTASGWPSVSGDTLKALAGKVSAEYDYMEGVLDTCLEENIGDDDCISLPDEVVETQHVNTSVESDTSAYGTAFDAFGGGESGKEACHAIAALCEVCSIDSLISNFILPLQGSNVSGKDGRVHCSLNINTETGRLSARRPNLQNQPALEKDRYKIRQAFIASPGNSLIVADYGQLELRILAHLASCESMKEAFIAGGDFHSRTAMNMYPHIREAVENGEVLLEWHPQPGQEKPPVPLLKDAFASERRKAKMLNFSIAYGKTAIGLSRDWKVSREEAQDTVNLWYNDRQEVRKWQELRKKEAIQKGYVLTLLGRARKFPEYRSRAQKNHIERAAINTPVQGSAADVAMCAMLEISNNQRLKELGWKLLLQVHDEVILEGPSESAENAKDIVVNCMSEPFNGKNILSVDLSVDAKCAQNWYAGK

Chain of T7 primase-helicase (Escherichia phage T7) (P03692 whole entry): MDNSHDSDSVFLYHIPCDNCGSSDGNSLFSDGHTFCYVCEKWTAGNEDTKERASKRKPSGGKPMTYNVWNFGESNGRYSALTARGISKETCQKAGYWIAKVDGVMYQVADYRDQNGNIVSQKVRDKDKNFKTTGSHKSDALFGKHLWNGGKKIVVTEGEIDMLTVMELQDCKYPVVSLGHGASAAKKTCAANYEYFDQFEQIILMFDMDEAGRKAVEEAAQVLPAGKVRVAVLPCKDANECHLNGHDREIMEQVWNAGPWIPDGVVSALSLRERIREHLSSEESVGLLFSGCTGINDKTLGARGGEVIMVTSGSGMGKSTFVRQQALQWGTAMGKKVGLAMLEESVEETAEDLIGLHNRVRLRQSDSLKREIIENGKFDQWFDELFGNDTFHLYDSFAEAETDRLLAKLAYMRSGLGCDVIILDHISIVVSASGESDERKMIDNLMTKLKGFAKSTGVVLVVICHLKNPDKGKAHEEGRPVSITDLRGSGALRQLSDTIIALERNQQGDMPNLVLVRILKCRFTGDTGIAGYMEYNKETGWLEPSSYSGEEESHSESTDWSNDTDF
Chain of DnaE (Bacillus subtilis) (O34623 whole entry): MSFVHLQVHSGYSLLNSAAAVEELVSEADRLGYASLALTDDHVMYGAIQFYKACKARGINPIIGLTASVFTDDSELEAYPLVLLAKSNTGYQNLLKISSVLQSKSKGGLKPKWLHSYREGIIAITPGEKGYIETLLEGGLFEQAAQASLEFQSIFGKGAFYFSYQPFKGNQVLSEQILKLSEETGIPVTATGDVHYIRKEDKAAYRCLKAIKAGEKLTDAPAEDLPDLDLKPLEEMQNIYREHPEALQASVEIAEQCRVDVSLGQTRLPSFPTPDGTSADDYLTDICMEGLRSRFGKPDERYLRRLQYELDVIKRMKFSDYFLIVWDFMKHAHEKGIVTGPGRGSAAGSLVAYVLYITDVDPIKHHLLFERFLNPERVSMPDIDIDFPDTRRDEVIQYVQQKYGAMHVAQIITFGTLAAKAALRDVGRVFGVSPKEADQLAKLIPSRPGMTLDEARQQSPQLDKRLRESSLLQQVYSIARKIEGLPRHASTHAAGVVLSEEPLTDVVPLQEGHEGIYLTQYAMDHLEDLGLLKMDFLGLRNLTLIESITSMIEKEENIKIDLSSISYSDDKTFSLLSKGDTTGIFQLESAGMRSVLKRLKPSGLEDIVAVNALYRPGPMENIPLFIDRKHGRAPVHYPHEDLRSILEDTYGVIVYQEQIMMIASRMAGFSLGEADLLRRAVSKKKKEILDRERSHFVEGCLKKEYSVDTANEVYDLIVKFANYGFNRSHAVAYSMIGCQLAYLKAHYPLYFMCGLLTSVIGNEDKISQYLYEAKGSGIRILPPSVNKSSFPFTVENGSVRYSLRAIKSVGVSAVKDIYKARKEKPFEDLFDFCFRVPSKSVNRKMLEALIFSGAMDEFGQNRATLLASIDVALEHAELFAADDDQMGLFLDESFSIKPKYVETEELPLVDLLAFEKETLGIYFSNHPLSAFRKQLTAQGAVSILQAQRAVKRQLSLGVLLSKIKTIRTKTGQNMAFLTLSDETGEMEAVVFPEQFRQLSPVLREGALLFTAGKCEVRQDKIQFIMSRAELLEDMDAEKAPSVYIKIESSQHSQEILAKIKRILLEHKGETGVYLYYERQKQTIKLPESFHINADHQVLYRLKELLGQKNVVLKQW

Molecule: DnaG primase (from UniProt P05096)
Kd (DnaE (Bacillus subtilis)): 0.75 µM

Molecule: T7 DNA polymerase (from UniProt P00581)
Kd [1]: 0.44 µM

B3: Twinkle helicase domain (401-709) (domain or fragment, Arabidopsis thaliana, UniProt B5X582 401-709, looked up)
chain: AILDAEPYPILGLFSFKDFFDEIDAYYDRTHGHEYGVSTGWKNLDNLYSVVPGELTVVTGIPNSGKSEWIDAMLCNLNHSVGWKFALCSMENKVRDHARKLLEKHIKKPFFDADYGRSVQRMSVEEKDEGKKWLNDTFYPIRCEMDSLPSIDWVLERAKAAVLRYGIRGLVIDPYNELDHQRTPRQTETEYVSQMLTKIKRFSQHHSCHVWFVAHPKQLQHWDGGAPNLYDISGSAHFINKCDNGIIVHRNRDENAGPLDLVQIGVRKVRNKVAGQIGDAYLCYDRTTGSYSDSPVTPGMPERRSPKRY
notes: Twinkle, Arabidopsis thaliana, At1g30680, helicase domain, residues 401-709; Tags of the pCri-1b vector removed with TEV protease; also called helicase module; source: cloned into pCri-1b, purified (potassium phosphate pH 7.0 buffer)
Kd [2]: 1.97 µM

Next, values leading:

Kd [2]: 0.81 µM
B1: Twinkle primase domain (residues 92-410) (domain or fragment, Arabidopsis thaliana, UniProt B5X582 92-410, looked up)
chain: TPVDTEVEADKRVVLSRLVTLRRKLAEQGVDAENCPPGQHSGLICPTCEGGNSGEKSLSLFIAPDGSSATWNCFRGKCGLKGGVRADGGLASADPIEKVERKITVEGIELEPLCDEIQDYFAARAISRKTLERNRVMQKRIGDEIVIAFTYWQRGELVSCKYRSLTKMFFQERKTRRILYGLDDIEKTSEVIIVEGEIDKLAMEEAGFLNCVSVPDGAPAKVSSKEIPSEDKDTKYKFLWNCNDYLKKASRIVIATDGDGPGQAMAEEIARRLGKERCWRVKWPKKSEDEHFKDANEVLMSKGPHLLKEAILDAEPYPI
notes: Twinkle, Arabidopsis thaliana, At1g30680, primase domain, residues 92-410; Tag removed with PreScission protease; also called primase module

Kd [2]: 2.17 µM
B2: Twinkle zinc finger subdomain (residues 92-186) (domain or fragment, Arabidopsis thaliana, UniProt B5X582 92-186, looked up)
chain: TPVDTEVEADKRVVLSRLVTLRRKLAEQGVDAENCPPGQHSGLICPTCEGGNSGEKSLSLFIAPDGSSATWNCFRGKCGLKGGVRADGGLASADP
notes: Twinkle, Arabidopsis thaliana, At1g30680, zinc finger subdomain, residues 92-186; Tag removed with PreScission protease; also called Zn++ Finger domain; zf

Kd [2]: 1.26 µM
B4: full-length Twinkle (recombinant, without histidine tag) (enzyme, Arabidopsis thaliana, UniProt B5X582 82-709, looked up)
chain: SSYNSIPRVPTPVDTEVEADKRVVLSRLVTLRRKLAEQGVDAENCPPGQHSGLICPTCEGGNSGEKSLSLFIAPDGSSATWNCFRGKCGLKGGVRADGGLASADPIEKVERKITVEGIELEPLCDEIQDYFAARAISRKTLERNRVMQKRIGDEIVIAFTYWQRGELVSCKYRSLTKMFFQERKTRRILYGLDDIEKTSEVIIVEGEIDKLAMEEAGFLNCVSVPDGAPAKVSSKEIPSEDKDTKYKFLWNCNDYLKKASRIVIATDGDGPGQAMAEEIARRLGKERCWRVKWPKKSEDEHFKDANEVLMSKGPHLLKEAILDAEPYPILGLFSFKDFFDEIDAYYDRTHGHEYGVSTGWKNLDNLYSVVPGELTVVTGIPNSGKSEWIDAMLCNLNHSVGWKFALCSMENKVRDHARKLLEKHIKKPFFDADYGRSVQRMSVEEKDEGKKWLNDTFYPIRCEMDSLPSIDWVLERAKAAVLRYGIRGLVIDPYNELDHQRTPRQTETEYVSQMLTKIKRFSQHHSCHVWFVAHPKQLQHWDGGAPNLYDISGSAHFINKCDNGIIVHRNRDENAGPLDLVQIGVRKVRNKVAGQIGDAYLCYDRTTGSYSDSPVTPGMPERRSPKRY
notes: Twinkle, Arabidopsis thaliana, At1g30680; called full-length in the results and legend; the methods name 'Twinkle lacking the first 91 codons' as the template of the domain constructs; Used without a histidine tag; It may in fact be the form lacking the first 91 residues (92-709); also called the full-length protein
